Measurements from patent US6075125.

Target: BFIV21FLAG: BFIV21 with the FLAG epitope on the amino terminal end, expressed on RP9 cells (chicken)
Assay: indirect immunofluorescence, flow cytometry on RP9-BFIV21FLAG cells (RP9-BFIV21: 21; RP9: 20)

FLAG-specific monoclonal antibody M2 (Kodak-IBI) (tool reagent)
log fluorescent mean channel number (mean log fluorescent channel number): 191
